For orientation: Kd means the equilibrium constant for the complex coming apart.

Experimental findings from patent US20110064751A1 (Hoffmann-La Roche, published 2011) are described below.

Positions count from the first letter of the chain named.

B1: F16 IgG (antibody, V domains shown)
VH: EVQLLESGGGLVQPGGSLRLSCAASGFTFSRYGMSWVRQAPGKGLEWVSAISGSGGSTYYADSVKGRFTISRDNSKNTLYLQMNSLRAEDTAVYYCAKAHNAFDYWGQGTLVTVSS
VL: SSELTQDPAVSVALGQTVRITCQGDSLRSYYASWYQQKPGQAPVLVIYGKNNRPSGIPDRFSGSSSGNTASLTITGAQAEDEADYYCNSSVYTMPPVVFGGGTKLTVL
notes: The light chain entry is named generally (F16, light chain); also called the IgG molecule; copies: 2 + 2
B2: F16 Fab fragment (Fab, V domains shown)
VH: B1 VH
VL: SSELTQDPAVSVALGQTVRITCQGDSLRSYYASWYQQKPGQAPVLVIYGKNNRPSGIPDRFSGSSSGNTASLTITGAQAEDEADYYCNSSVYTMPPVVFGGGTKLTVLG
notes: also called monovalent Fab fragment of F16
B3: 4B3 Fab (Fab, V domains shown)
VH: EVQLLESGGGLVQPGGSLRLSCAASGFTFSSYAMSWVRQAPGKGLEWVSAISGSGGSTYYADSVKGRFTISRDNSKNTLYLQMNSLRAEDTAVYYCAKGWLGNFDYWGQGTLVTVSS
VL: EIVLTQSPGTLSLSPGERATLSCRASQSVSSNYLAWYQQKPGQAPRLLIYGAYIRATGIPDRFSGSGSGTDFTLTISRLEPEDFAVYYCQQGQVIPPTFGQGTKVEIK
notes: Fab fragment; also called clone 4B3
B4: 3F2 Fab (Fab, V domains shown)
VH: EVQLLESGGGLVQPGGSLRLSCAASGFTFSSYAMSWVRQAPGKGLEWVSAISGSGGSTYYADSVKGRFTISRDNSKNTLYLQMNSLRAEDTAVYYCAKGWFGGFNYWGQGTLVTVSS
VL: EIVLTQSPGTLSLYPGERATLSCRASQSVTSSYLAWYQQKPGQAPRLLINVGSRRATGIPDRFSGSGSGTDFTLTISRLEPEDFAVYYCQQGIMLPPTFGQGTKVEIK
notes: Fab fragment; also called clone 3F2
B5: 4G8 Fab (Fab, V domains shown)
VH: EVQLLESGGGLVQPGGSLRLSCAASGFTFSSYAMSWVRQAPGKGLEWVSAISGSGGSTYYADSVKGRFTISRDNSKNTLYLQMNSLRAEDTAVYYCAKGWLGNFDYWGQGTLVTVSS
VL: B3 VL with S31R, N32S, Y50I, Y53S, I54T
notes: Fab fragment; also called clone 4G8
B6: 23C10 Fab (Fab, V domains shown)
VH: EVQLLESGGGLVQPGGSLRLSCAASGFTFSSSAMSWVRQAPGKGLEWVSAISTNGNYTYYADSVKGRFTISRDNSKNTLYLQMNSLRAEDTAVYYCAKGWLGNFDYWGQGTLVTVSS
VL: B3 VL with S31R, N32S, Y50I, Y53S, I54T
notes: also called clone 23C10
B7: 28H1 Fab (Fab, V domains shown)
VH: EVQLLESGGGLVQPGGSLRLSCAASGFTFSSHAMSWVRQAPGKGLEWVSAIWASGEQYYADSVKGRFTISRDNSKNTLYLQMNSLRAEDTAVYYCAKGWLGNFDYWGQGTLVTVSS
VL: B3 VL with S31R, N32S, Y50I, Y53S, I54T
notes: also called clone 28H1
B8: 29B11 Fab (Fab, V domains shown)
VH: B6 VH with S32Y, S52I, T53G, N54S, N56G, Y57I, L101F, N103G, D105N
VL: B4 VL with Y14S
notes: also called clone 29B11
B9: 16F8 Fab (Fab, V domains shown)
VH: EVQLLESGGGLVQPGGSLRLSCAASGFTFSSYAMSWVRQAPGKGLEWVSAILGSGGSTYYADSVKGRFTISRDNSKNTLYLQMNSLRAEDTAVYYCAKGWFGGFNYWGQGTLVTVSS
VL: B4 VL with Y14S
notes: also called clone 16F8
B10: 16F1 Fab (Fab, V domains shown)
VH: B6 VH with S32Y, A50G, S52I, T53G, N54S, N56G, Y57I, L101F, N103G, D105N
VL: B4 VL with Y14S
notes: also called clone 16F1
B11: 20G8 Fab (Fab, V domains shown)
VH: B6 VH with S32Y, S52I, T53G, N54S, N56S, Y57R, L101F, N103G, D105N
VL: B4 VL with Y14S
notes: also called clone 20G8
B12: O2D7 Fab (Fab, V domains shown)
VH: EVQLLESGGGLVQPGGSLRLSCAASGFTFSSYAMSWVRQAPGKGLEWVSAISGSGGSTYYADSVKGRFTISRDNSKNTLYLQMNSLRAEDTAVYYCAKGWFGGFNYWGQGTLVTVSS
VL: B4 VL with Y14S, I59T, G92A
notes: also called clone O2D7
B13: O3C9 Fab (Fab, V domains shown)
VH: B6 VH with S32F, A40S, S52I, T53G, N54S, N56S, Y57N, L101F, N103G, D105N
VL: B4 VL with Y14S
notes: also called clone O3C9
B14: 5B8 Fab (Fab, V domains shown)
VH: B6 VH with S32Y, S52W, T53G, N54G, N56R, Y57S, L101F, N103G, D105N
VL: B4 VL with Y14S
notes: also called clone 5B8
B15: 22A3 Fab (Fab, V domains shown)
VH: B6 VH with S32Y, S52I, T53G, N54S, N56S, Y57I, L101F, N103G, D105N
VL: B4 VL with Y14S
notes: also called clone 22A3
B16: 4B9 Fab (Fab, V domains shown)
VH: B6 VH with S32Y, S52I, T53G, N54S, N56A, Y57S, L101F, N103G, D105N
VL: B4 VL with Y14S
notes: also called clone 4B9
B17: 14B3 Fab (Fab, V domains shown)
VH: B6 VH with S32Y, S52L, T53A, N54S, N56A, Y57I, L101F, N103G, D105N
VL: B4 VL with Y14S
notes: also called clone 14B3
B18: 19G1 Fab (Fab, V domains shown)
VH: B6 VH with S32Y, S52I, T53S, N54S, N56G, Y57L, L101F, N103G, D105N
VL: B4 VL with Y14S
notes: also called clone 19G1
B19: 5F1 Fab (Fab, V domains shown)
VH: B6 VH with S32Y, S52I, T53S, N54S, N56A, Y57S, L101F, N103G, D105N
VL: B4 VL with Y14S
notes: also called clone 5F1
B20: 2B10_6A12 Fab (Fab, V domains shown)
VH: QVQLVQSGAEVKKPGSSVKVSCKASGGTFSSYAISWVRQAPGQGLEWMGVIIPILGTANYAQKFQGRVTITADKSTSTAYMELSSLRSEDTAVYYCARLYGYAYYGAFDYWGQGTTVTVSS
VL: DIQMTQSPSSLSASVGDRVTITCRASQGIRNDLGWYQQKPGKAPKRLIYAASSLQSGVPSRFSGSGSGTEFTLTISSLQPEDFATYYCLQNGLQPATFGQGTKVEIK
notes: also called clone 2B10-6A12
B21: 2B10_C3A6 Fab (Fab, V domains shown)
VH: B20 VH with V50G, L55F
VL: B20 VL with D32V, A50D, A51S, S65G
notes: also called clone 2B10_C3A6
B22: 2B10_6H10 Fab (Fab, V domains shown)
VH: B20 VH with V50G, L55F
VL: B20 VL with D32V, Y49Q, S52T, S65G
notes: also called clone 2B10-6H10
B23: 2B10_C3B6 Fab (Fab, V domains shown)
VH: B20 VH with V50A, T57I
VL: B20 VL
notes: also called clone 2B10_C3B6
B24: 2B10_O1F7 Fab (Fab, V domains shown)
VH: B20 VH with V50G, L55F
VL: B20 VL with D32V, A50D, S65G
notes: also called clone 2B10_O1F7
B25: 2B10_O7D8 Fab (Fab, V domains shown)
VH: B20 VH with V50G, L55F
VL: B20 VL with G28S, D32V, A50D, A51V, S65G
notes: also called clone 2B10_O7D8

In the first assay the target is T1, A1 domain of tenascin (TNC-A1), immobilized domain of Example 1 (UniProt P24821 1072-1162, limits assumed).
T1 construct: domain: A1; also called TNC-A1 domain
T1 sequence (looked up): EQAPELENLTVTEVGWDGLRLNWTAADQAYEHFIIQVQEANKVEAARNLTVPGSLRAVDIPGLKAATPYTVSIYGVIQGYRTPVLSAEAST
Nature of the assay: SPR (BIACORE), TNC-A1 domain immobilized on the chip. (In SPR one partner is held on a chip, and binding of the other changes the refractive index at the surface.)
For B1, the Kd is 2.6 nM and the “increase of affinity attributed to bivalency (IgG against Fab)” value came out at 20 fold.

In the case of B2, the Kd came out at 50 nM.

The next assay deals with T2, Murine FAP ectodomain + poly-lys-tag + his6-tag (murine, UniProt P97321 27-761).
T2 construct: also called mu FAP
Description: first affinity maturation campaign: phage selections, ELISA and BIACORE kinetic screening. (In an ELISA, binding on a coated surface is turned into a signal by an enzyme label.)
For the molecule B3, the binding result is recorded as “binds”.

In the case of B4, the binding result was “binds”.

Regarding B5, the binding result is reported as “binds”.

The target in another assay is T3, Human FAP ectodomain + poly-lys-tag + his6-tag (human, UniProt Q12884 27-760).
T3 construct: also called hu FAP
The assay is described as above.
B3: the binding result is recorded as “binds”.

Take B4: the binding result is “binds”.

As to B5, the binding result is recorded as “binds”.

A further assay deals with T2, Murine FAP ectodomain + poly-lys-tag + …. Nature of the assay: SPR (ProteOn XPR36), purified Fab, monovalent binding.
Consider B6, for which the dissociation constant Kd turned out to be 0.125 nM.

Take B7: the dissociation constant (Kd) was determined as 0.009 nM.

On to B8, for which the dissociation constant (Kd) amounted to 0.436 nM.

Consider B9, for which the Kd was 3.8 nM.

With B10, the Kd stood at 3.4 nM.

As for B11, the dissociation constant Kd turned out to be 2.8 nM.

Regarding B12, the Kd came to 8.3 nM.

For the molecule B13, the Kd came to 3.7 nM.

Regarding B14, the dissociation constant (Kd) was 3.2 nM.

For B15, the Kd amounted to 0.655 nM.

As for B16, the Kd came to 3.3 nM.

For the molecule B17, the Kd came out at 3.8 nM.

B18: the Kd is 2.6 nM.

As to B19, the Kd is 4.1 nM.

A further assay deals with T4, Cynomolgus FAP (Cynomolgus).
T4 construct: construct not described; also called cyno FAP
Described as above.
The molecule B6 came in with a dissociation constant Kd of 0.99 nM.

The molecule B8 came in with a dissociation constant (Kd) of 0.023 nM.

On to B15, for which the affinity, expressed as Kd, was 0.522 nM.

The target in a further assay is T3, Human FAP ectodomain + poly-lys-tag + …. The description is as above.
For B6, the Kd was determined as 1.6 nM.

In the case of B7, the Kd worked out at 0.2 nM.

In the case of B8, the Kd was determined as 0.035 nM.

B9: the Kd was 0.301 nM.

Turning to B10, the Kd was 0.193 nM.

For the molecule B11, the Kd was 0.069 nM.

As to B12, the equilibrium dissociation constant (Kd) is 0.619 nM.

As for B13, the dissociation constant Kd was 0.16 nM.

With B14, the Kd came to 0.69 nM.

On to B15, for which the Kd came out at 0.034 nM.

For the molecule B16, the Kd was determined as 0.157 nM.

For the molecule B17, the Kd amounted to 0.377 nM.

For the molecule B18, the dissociation constant Kd came out at 0.076 nM.

Regarding B19, the dissociation constant Kd was 0.243 nM.

A further assay deals with T5, Human TNC-A2 + avi-tag + his6-tag (human, biotinylated in vivo at the avi-tag).
T5 construct: also called hu TNC A2; A2 domain of human tenascin
T5 chain: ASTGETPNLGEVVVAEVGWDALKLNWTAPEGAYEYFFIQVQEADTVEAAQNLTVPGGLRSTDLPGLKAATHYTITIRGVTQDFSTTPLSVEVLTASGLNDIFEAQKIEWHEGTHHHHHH
Described as above. Here is the method: Selections were carried out against E. coli expressed human TNC A2 which was cloned upstream an avi-tag and 6×his-tag (see SEQ ID NO: 57 of Table 5). The antigen was biotinylated in vivo upon expression. Selections have been carried out in solution as described for the primary TNC A2 selections using decreasing concentrations of human TNC A2 ranging from 100 to 2 nM. After identification of affinity-matured clones by ELISA, secondary screenings were carried out using a ProteOn XPR36 biosensor (Biorad) and kinetic rate constants and affinities were determined analyzing affinity-purified Fab preparations on the same instrument.
B20: the Kd is 0.29 nM.

Regarding B21, the dissociation constant Kd was 0.497 nM.

On to B22, for which the Kd came to 0.81 nM.

As for B23, the Kd is 0.191 nM.

Regarding B24, the Kd is 0.056 nM.

For the molecule B25, the Kd turned out to be 0.147 nM.

A further assay deals with T6, DPPIV expressed on HEK293 or CHO cells (Homo sapiens (Human), UniProt P27487 1-766).
T6 construct: also called close homologue of FAP
Description: binding to DPPIV-expressing HEK293 or CHO cells.
Turning to B6, the binding result is “no binding”.

With B7, the binding result is “no binding”.

In the case of B8, the binding result is given as “no binding”.

In the case of B9, the binding result is on record as “no binding”.

Take B10: the binding result is “no binding”.

B11: the binding result is “no binding”.

On to B12, for which the binding result is reported as “no binding”.

With B13, the binding result is on record as “no binding”.

Consider B14, for which the binding result was “no binding”.

B15: the binding result is “no binding”.

For the molecule B16, the binding result was “no binding”.

On to B17, for which the binding result is listed as “no binding”.

Take B18: the binding result is reported as “no binding”.

Turning to B19, the binding result was “no binding”.
